According to article PMC4618232 (Nature chemical biology, 2015):
Each block holds one binder with its values, some of them ahead of it.

B1: mouse XXYLT1 (Xylosideα1–3 Xylosyltransferase), soluble domain S43–D392 after limited proteolysis with trypsin (enzyme, UniProt Q3U4G3 93-391, looked up)
chain: VVPVDYHLLMMFTKAEHNAPLQAKARVALSSLLRLAKFEAHEVLNLHFVSEEASREVAKALLRELLPPAAGFKCKVIFHDVAVLTDKLFPVVEAMQKYFSAGSGTYYSDSIFFLSVAMHQIMPKEIPRIIQLDLDLKYKTNIRELFEEFDNFLPGAVIGIAREMQPVYRHTFWQFRHENPKTRVGDPPPEGLPGFNSGVMLLNLEAMRQSPLYSHLLEPSWVQQLADKYHFRGHLGDQDFFTMIGMEHPELFHVLDCTWNRQLCTWWRDHGYSDVFQAYFRCEGHVKIYHGNCNTPIPE

How the values were obtained:
[1] = biological target: B1; test: SEC
[2] = biological target: B1; test: crystal structure
crystal structure = biological target: the molecule itself; test: crystal structure

binding result [1]: binds
Binder: VDGDQCESNPCLNGGSCKDDINSYECWCPFGFEGKNCEL (domain or fragment, Xyl-Glc disaccharide on Ser53) [human factor IX (hFA9) EGF repeat modified with the Xyl-Glc disaccharide]

binding result [2]: binds
Binder: VDGDQCESNPCLNGGSCKDDINSYECWCPFGFEGKNCEL (domain or fragment, Xyl-Xyl-Glc trisaccharide on Ser53) [human factor IX (hFA9) EGF repeat with the Xyl-Xyl-Glc trisaccharide (product of XXYLT1)]

Binder: B1
stoichiometry N (crystal structure): 2
